How the values were obtained:
[1] = target: T1, human PCSK9 with a C-terminal myc-myc-hexahistidine tag (human, UniProt Q8NBP7 31-692, limits assumed); assay: SPR 25C pH 7.2, mAb captured;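 also: biacore SPR, antibodies captured on anti-human Fc CM4 chip with PCSK9 flowed as analyte, rate constants from a one-to-one kinetic fit, KD and half-life derived from them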
T1 construct: also called hPCSK9-mmH; hPCSK9-mmh; not shown: C-terminal myc-myc-hexahistidine tag

[2] = target: T1, human PCSK9 with a C-terminal …; assay: SPR 25C, mAb captured;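 also: biacore CM4 surface bearing anti-human Fc antibody capturing the mAbs, PCSK9 binding and release rates fitted with a one-to-one model, KD and half-life derived from those rates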
Method: (§1) A Biacore CM4 sensor chip was derivatized with a monoclonal mouse anti-human Fc antibody to capture human antibodies. The histidine substitution variant anti-PCSK9 antibodies were captured onto the anti-human Fc sensor surface from culture medium after transient expression in Chinese hamster ovary (CHO) cells. […] Kinetic association (kₐ) and dissociation (kd) rate constants were determined by processing and fitting the data to a 1:1 binding model using Scrubber 2.0 curve fitting software. Binding dissociation equilibrium constants (KD) and dissociative half-lives (t_{1/2}) were calculated from the kinetic rate constants as: KD (M)=kd/kₐ; and t_{1/2} (min)=(In2/(60*kd).

[3] = target: T1, human PCSK9 with a C-terminal …; assay: SPR 25C pH 5.75, mAb captured;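 also: biacore surface with anti-human Fc antibody capturing the antibodies, PCSK9 as analyte, one-to-one kinetic fit, KD as kd over ka, half-life derived from kd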
Method: as §1

Row | binding result [1] | KD ratio pH 5.75/pH 7.2 [2] | t½ ratio pH 5.75/pH 7.2 [2] | Kd [1] | t½ [1] | Kd [3] | t½ [3] | Binder
1 | no binding | – | – | – | – | – | – | VH-A97 (antibody, V domains shown, His variant of 300N; label printed without the final H) VH: EMQLVESGGGLVQPGGSLRLSCAASGFTFSSHWMKWVRQAPGKGLEWVANINQDGSEKYYVDSVKGRFTISRDNAKNSLFLQMNSLRAEDTAVYYCHRDIVLMVYDMDYYYYGMDVWGQGTTVTVSS VL: not shown
2 | no binding | – | – | – | – | – | – | VH-G113H (antibody, V domains shown, His variant of 300N) VH: EMQLVESGGGLVQPGGSLRLSCAASGFTFSSHWMKWVRQAPGKGLEWVANINQDGSEKYYVDSVKGRFTISRDNAKNSLFLQMNSLRAEDTAVYYCARDIVLMVYDMDYYYYHMDVWGQGTTVTVSS VL: not shown
3 | – | 0.87 | 0.29 | 1.21 nM | 42 min | 1.05 nM | 12 min | VH-F27H (antibody, V domains shown, His variant of 300N) VH: EMQLVESGGGLVQPGGSLRLSCAASGHTFSSHWMKWVRQAPGKGLEWVANINQDGSEKYYVDSVKGRFTISRDNAKNSLFLQMNSLRAEDTAVYYCARDIVLMVYDMDYYYYGMDVWGQGTTVTVSS VL: not shown
4 | – | 1.84 | 0.16 | 2.35 nM | 21 min | 4.33 nM | 3 min | VH-N52H (antibody, V domains shown, His variant of 300N) VH: EMQLVESGGGLVQPGGSLRLSCAASGFTFSSHWMKWVRQAPGKGLEWVANIHQDGSEKYYVDSVKGRFTISRDNAKNSLFLQMNSLRAEDTAVYYCARDIVLMVYDMDYYYYGMDVWGQGTTVTVSS VL: not shown
5 | – | 0.79 | 0.33 | 0.964 nM | 40 min | 0.76 nM | 13 min | VH-D54H (antibody, V domains shown, His variant of 300N) VH: EMQLVESGGGLVQPGGSLRLSCAASGFTFSSHWMKWVRQAPGKGLEWVANINQHGSEKYYVDSVKGRFTISRDNAKNSLFLQMNSLRAEDTAVYYCARDIVLMVYDMDYYYYGMDVWGQGTTVTVSS VL: not shown
6 | – | 3.66 | 0.31 | 4.89 nM | 23 min | 17.9 nM | 7 min | VH-L102H (antibody, V domains shown, His variant of 300N) VH: EMQLVESGGGLVQPGGSLRLSCAASGFTFSSHWMKWVRQAPGKGLEWVANINQDGSEKYYVDSVKGRFTISRDNAKNSLFLQMNSLRAEDTAVYYCARDIVHMVYDMDYYYYGMDVWGQGTTVTVSS VL: not shown
7 | – | 1.75 | 0.28 | 4.29 nM | 23 min | 7.52 nM | 6 min | VH-R98H (antibody, V domains shown, His variant of 300N) VH: EMQLVESGGGLVQPGGSLRLSCAASGFTFSSHWMKWVRQAPGKGLEWVANINQDGSEKYYVDSVKGRFTISRDNAKNSLFLQMNSLRAEDTAVYYCAHDIVLMVYDMDYYYYGMDVWGQGTTVTVSS VL: not shown
8 | – | 0.92 | 0.26 | 1.39 nM | 32 min | 1.28 nM | 8 min | VH-K58H (antibody, V domains shown, His variant of 300N) VH: EMQLVESGGGLVQPGGSLRLSCAASGFTFSSHWMKWVRQAPGKGLEWVANINQDGSEHYYVDSVKGRFTISRDNAKNSLFLQMNSLRAEDTAVYYCARDIVLMVYDMDYYYYGMDVWGQGTTVTVSS VL: not shown
9 | – | 1.03 | 0.33 | 1.06 nM | 41 min | 1.09 nM | 13 min | VH-S30H (antibody, V domains shown, His variant of 300N) VH: EMQLVESGGGLVQPGGSLRLSCAASGFTFHSHWMKWVRQAPGKGLEWVANINQDGSEKYYVDSVKGRFTISRDNAKNSLFLQMNSLRAEDTAVYYCARDIVLMVYDMDYYYYGMDVWGQGTTVTVSS VL: not shown
10 | – | 1.29 | 0.19 | 1.22 nM | 32 min | 1.57 nM | 6 min | VH-Q53H (antibody, V domains shown, His variant of 300N) VH: EMQLVESGGGLVQPGGSLRLSCAASGFTFSSHWMKWVRQAPGKGLEWVANINHDGSEKYYVDSVKGRFTISRDNAKNSLFLQMNSLRAEDTAVYYCARDIVLMVYDMDYYYYGMDVWGQGTTVTVSS VL: not shown
11 | – | 1.24 | 0.34 | 0.828 nM | 50 min | 1.03 nM | 17 min | VH-I51H (antibody, V domains shown, His variant of 300N) VH: EMQLVESGGGLVQPGGSLRLSCAASGFTFSSHWMKWVRQAPGKGLEWVANHNQDGSEKYYVDSVKGRFTISRDNAKNSLFLQMNSLRAEDTAVYYCARDIVLMVYDMDYYYYGMDVWGQGTTVTVSS VL: not shown
12 | – | 0.14 | 0.73 | 46.2 nM | 9 min | 6.32 nM | 7 min | VH-D99H (antibody, V domains shown, His variant of 300N) VH: EMQLVESGGGLVQPGGSLRLSCAASGFTFSSHWMKWVRQAPGKGLEWVANINQDGSEKYYVDSVKGRFTISRDNAKNSLFLQMNSLRAEDTAVYYCARHIVLMVYDMDYYYYGMDVWGQGTTVTVSS VL: not shown
13 | – | 1.68 | 0.21 | 3.3 nM | 27 min | 5.56 nM | 6 min | VH-M103H (antibody, V domains shown, His variant of 300N) VH: EMQLVESGGGLVQPGGSLRLSCAASGFTFSSHWMKWVRQAPGKGLEWVANINQDGSEKYYVDSVKGRFTISRDNAKNSLFLQMNSLRAEDTAVYYCARDIVLHVYDMDYYYYGMDVWGQGTTVTVSS VL: not shown
14 | – | 1.13 | 0.28 | 0.921 nM | 53 min | 1.04 nM | 15 min | VH-G55H (antibody, V domains shown, His variant of 300N) VH: EMQLVESGGGLVQPGGSLRLSCAASGFTFSSHWMKWVRQAPGKGLEWVANINQDHSEKYYVDSVKGRFTISRDNAKNSLFLQMNSLRAEDTAVYYCARDIVLMVYDMDYYYYGMDVWGQGTTVTVSS VL: not shown
15 | – | 1.11 | 0.23 | 1.02 nM | 40 min | 1.13 nM | 9 min | VH-S56H (antibody, V domains shown, His variant of 300N) VH: EMQLVESGGGLVQPGGSLRLSCAASGFTFSSHWMKWVRQAPGKGLEWVANINQDGHEKYYVDSVKGRFTISRDNAKNSLFLQMNSLRAEDTAVYYCARDIVLMVYDMDYYYYGMDVWGQGTTVTVSS VL: not shown
16 | – | 3.56 | 0.15 | 6.77 nM | 18 min | 24.1 nM | 3 min | VH-I100H (antibody, V domains shown, His variant of 300N) VH: EMQLVESGGGLVQPGGSLRLSCAASGFTFSSHWMKWVRQAPGKGLEWVANINQDGSEKYYVDSVKGRFTISRDNAKNSLFLQMNSLRAEDTAVYYCARDHVLMVYDMDYYYYGMDVWGQGTTVTVSS VL: not shown
17 | – | 1.03 | 0.26 | 1.2 nM | 30 min | 1.23 nM | 8 min | VH-E57H (antibody, V domains shown, His variant of 300N) VH: EMQLVESGGGLVQPGGSLRLSCAASGFTFSSHWMKWVRQAPGKGLEWVANINQDGSHKYYVDSVKGRFTISRDNAKNSLFLQMNSLRAEDTAVYYCARDIVLMVYDMDYYYYGMDVWGQGTTVTVSS VL: not shown
18 | no binding | – | – | – | – | – | – | VK-T96H (antibody, V domains shown, His variant of 300N) VH: EMQLVESGGGLVQPGGSLRLSCAASGFTFSSHWMKWVRQAPGKGLEWVANINQDGSEKYYVDSVKGRFTISRDNAKNSLFLQMNSLRAEDTAVYYCARDIVLMVYDMDYYYYGMDVWGQGTTVTVSS VL: not shown
19 | – | 1.8 | 0.22 | 1.06 nM | 46 min | 1.91 nM | 10 min | VH-F29H (antibody, V domains shown, His variant of 300N) VH: EMQLVESGGGLVQPGGSLRLSCAASGFTHSSHWMKWVRQAPGKGLEWVANINQDGSEKYYVDSVKGRFTISRDNAKNSLFLQMNSLRAEDTAVYYCARDIVLMVYDMDYYYYGMDVWGQGTTVTVSS VL: not shown
20 | no binding | – | – | – | – | – | – | VK-S32H (antibody, V domains shown, His variant of 300N) VH: EMQLVESGGGLVQPGGSLRLSCAASGFTFSSHWMKWVRQAPGKGLEWVANINQDGSEKYYVDSVKGRFTISRDNAKNSLFLQMNSLRAEDTAVYYCARDIVLMVYDMDYYYYGMDVWGQGTTVTVSS VL: not shown
21 | – | 4.62 | 0.49 | 3.91 nM | 26 min | 18.1 nM | 13 min | VH-D115H (antibody, V domains shown, His variant of 300N) VH: EMQLVESGGGLVQPGGSLRLSCAASGFTFSSHWMKWVRQAPGKGLEWVANINQDGSEKYYVDSVKGRFTISRDNAKNSLFLQMNSLRAEDTAVYYCARDIVLMVYDMDYYYYGMHVWGQGTTVTVSS VL: not shown
22 | – | 0.97 | 0.26 | 0.985 nM | 47 min | 0.956 nM | 12 min | VH-G26H (antibody, V domains shown, His variant of 300N) VH: EMQLVESGGGLVQPGGSLRLSCAASHFTFSSHWMKWVRQAPGKGLEWVANINQDGSEKYYVDSVKGRFTISRDNAKNSLFLQMNSLRAEDTAVYYCARDIVLMVYDMDYYYYGMDVWGQGTTVTVSS VL: not shown
23 | – | 1 | 0.34 | 1.01 nM | 48 min | 1 nM | 16 min | VH-S31H (antibody, V domains shown, His variant of 300N) VH: EMQLVESGGGLVQPGGSLRLSCAASGFTFSHHWMKWVRQAPGKGLEWVANINQDGSEKYYVDSVKGRFTISRDNAKNSLFLQMNSLRAEDTAVYYCARDIVLMVYDMDYYYYGMDVWGQGTTVTVSS VL: not shown

Reference: US20140044730A1 (Regeneron, published 2014)
